Test results: US20040009897A1

Key:
[1] = biological target: human recombinant soluble CD4 (human) (UniProt P01730); assay: competitive ELISA on rsCD4; competitor mAb B4-HRP; unlabelled mAb B4 at 20 µg/mL, positive control run with week 9 sera
[2] = biological target: human recombinant soluble CD4 (human) (UniProt P01730); assay: competitive ELISA on rsCD4; competitor mAb B4-HRP; unlabelled mAb B4 at 2.0 µg/mL, positive control run with week 9 sera
[3] = biological target: human recombinant soluble CD4 (human) (UniProt P01730); assay: competitive ELISA on rsCD4; competitor mAb B4-HRP; unlabelled mAb B4 at 20 µg/mL, positive control run with week 11 sera
[4] = biological target: human recombinant soluble CD4 (human) (UniProt P01730); assay: competitive ELISA on rsCD4; competitor mAb B4-HRP; unlabelled mAb B4 at 20 µg/mL, positive control run with week 17 sera
[5] = biological target: human recombinant soluble CD4 (human) (UniProt P01730); assay: competitive ELISA on rsCD4; competitor mAb B4-HRP; unlabelled mAb B4 at 2.0 µg/mL, positive control run with week 11 sera
[6] = biological target: human recombinant soluble CD4 (human) (UniProt P01730); assay: competitive ELISA on rsCD4; competitor mAb B4-HRP; unlabelled mAb B4 at 2.0 µg/mL, positive control run with week 17 sera

Which results are given for “mAb B4 (anti-binding site monoclonal antibody), unlabelled, purified”?
% Inhibition [1]: 63%; % Inhibition [2]: 23.5%; % Inhibition [3]: 63%; % Inhibition [4]: 48.7%; % Inhibition [5]: 11.7%; % Inhibition [6]: 11.7%
